Data set [1] addresses T1, GST-cdc25c (200 to 250 amino acids) (UniProt P30307).
T1 sequence: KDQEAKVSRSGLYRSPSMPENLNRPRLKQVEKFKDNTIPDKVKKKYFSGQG

Data set [2] addresses GST-weel (Accession number U10564) (UniProt P30291).
In data set [3] the target is T2, human Chk1 (Accession number AF016582) protein prepared as a fusion protein with glutathione S-transferase (GST) (UniProt O14757).
T2 sequence: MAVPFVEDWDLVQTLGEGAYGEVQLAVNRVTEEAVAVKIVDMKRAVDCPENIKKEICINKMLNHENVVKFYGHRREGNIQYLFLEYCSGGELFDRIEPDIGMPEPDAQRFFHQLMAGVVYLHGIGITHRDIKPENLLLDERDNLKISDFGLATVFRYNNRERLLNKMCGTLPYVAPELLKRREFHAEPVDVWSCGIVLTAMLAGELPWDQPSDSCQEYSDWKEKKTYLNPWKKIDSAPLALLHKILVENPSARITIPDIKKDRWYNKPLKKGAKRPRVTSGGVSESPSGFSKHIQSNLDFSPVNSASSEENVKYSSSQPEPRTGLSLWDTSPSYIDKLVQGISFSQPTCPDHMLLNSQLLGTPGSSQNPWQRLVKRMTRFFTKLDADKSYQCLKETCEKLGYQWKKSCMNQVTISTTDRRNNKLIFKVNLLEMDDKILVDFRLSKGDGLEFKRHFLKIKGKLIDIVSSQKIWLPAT

Data set [4] has as its system histone H1 (J. Biochem. 100, 359, 1986).
Data set [5] deals with T3, GST-cdc25c (full-length) (Accession number L26584) (UniProt P30307).
T3 sequence: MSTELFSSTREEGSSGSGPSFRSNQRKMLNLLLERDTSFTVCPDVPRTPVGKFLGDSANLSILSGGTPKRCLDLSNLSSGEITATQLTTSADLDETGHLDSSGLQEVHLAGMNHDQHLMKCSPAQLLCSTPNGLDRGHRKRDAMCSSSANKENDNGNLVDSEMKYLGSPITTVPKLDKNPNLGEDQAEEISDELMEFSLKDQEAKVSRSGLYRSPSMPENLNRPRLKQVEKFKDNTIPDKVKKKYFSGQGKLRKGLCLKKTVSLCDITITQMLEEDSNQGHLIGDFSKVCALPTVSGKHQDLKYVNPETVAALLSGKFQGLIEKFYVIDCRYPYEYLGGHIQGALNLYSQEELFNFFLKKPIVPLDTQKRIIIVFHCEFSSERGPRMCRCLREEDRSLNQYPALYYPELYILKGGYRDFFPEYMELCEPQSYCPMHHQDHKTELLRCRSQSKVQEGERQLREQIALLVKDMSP

Sequence of GST-weel (Accession number U10564) (P30291 whole entry, looked up, the tested form may be a part): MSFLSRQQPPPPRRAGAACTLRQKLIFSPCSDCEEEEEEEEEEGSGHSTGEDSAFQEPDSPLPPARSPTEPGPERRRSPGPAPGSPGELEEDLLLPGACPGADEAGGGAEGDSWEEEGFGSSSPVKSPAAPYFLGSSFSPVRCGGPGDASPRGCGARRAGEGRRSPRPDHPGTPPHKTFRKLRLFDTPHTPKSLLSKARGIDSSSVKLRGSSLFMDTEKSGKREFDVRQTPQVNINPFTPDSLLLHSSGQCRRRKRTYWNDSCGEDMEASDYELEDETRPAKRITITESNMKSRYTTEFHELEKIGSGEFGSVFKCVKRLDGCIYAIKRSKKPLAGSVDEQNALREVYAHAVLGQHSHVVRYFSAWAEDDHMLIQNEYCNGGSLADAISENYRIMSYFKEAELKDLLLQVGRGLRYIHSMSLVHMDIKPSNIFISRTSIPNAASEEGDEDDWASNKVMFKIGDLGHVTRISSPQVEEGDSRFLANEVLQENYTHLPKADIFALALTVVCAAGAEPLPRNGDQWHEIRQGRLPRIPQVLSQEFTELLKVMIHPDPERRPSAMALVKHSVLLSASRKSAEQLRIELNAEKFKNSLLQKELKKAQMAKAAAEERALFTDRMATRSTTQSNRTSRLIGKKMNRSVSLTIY

In the case of “hCds1 KM mutant (249th lysine converted to methionine, myc/6xHis-tagged, expressed in Sf9 cells)”, the “in vitro kinase assay ([gamma-32P]ATP, SDS-PAGE, autoradiography)” value in data set [1], in data set [2], in data set [3], in data set [4] and in data set [5] was “failed to phosphorylate any substrate” each time.

In the case of “recombinant "hCds1" (human Cds1, wild type, myc/6xHis-tagged, expressed in Sf9 cells)”, the “in vitro kinase assay ([gamma-32P]ATP, SDS-PAGE, autoradiography)” value is “efficiently phosphorylated” in data set [1]; “hardly phosphorylated” in data set [2]; “hardly phosphorylated” in data set [3]; “efficiently phosphorylated” in data set [4]; “efficiently phosphorylated” in data set [5].

These data come from US20020012964.
